Assay results: the DeepSol protein solubility set

Assay: soluble on expression in E. coli; label from the status in PepcDB or PDB records
With “MSDHEEESHGASPTSPASSGASSPLAPISPRSEGNAPESPSGDVQDIYKDESFEAPASPARDSSAPASPSAASPAGSRSPSPSPVKTKSKVMIDSDEDSDAEESANKRALIDSDASDAEGKKRRVMLDSDDSDHEGTSKKEPTTKNLFGDDSDDDDEDRPKKTNDLDEFVEGRDEEESQETSKPAYDSDDDDGPVDRHGRHFEWDFDKMLAEKKAERKKKTRRGGKDGGIDIINDDDGTVSRLVERMKHAAKSDRNANIERKPAFQKIKMLPEVKAIMLRAGIVEVLIENGFMSALSEWLAPLPDKCLPALDIRITVLKLLHNPRFWKLDRSTLKQSGLGKAVMMLYKHPNETKENKGIANKLIGEWARPIYHLDTDYSTVSRQEREERDYSRMPEKRKKKINSRDEEEPNDDDQPKRPRIRDADEMGPTKSDDLKPGDKGYIPRARVPKPSTKDYVIRPEWRVTGAFKGEKKSTGNNRYDQTFRDFQERTKKSKANRIVKVSLEGRNMGI” the “soluble on expression in E. coli” value was “soluble”. For “MSLAYIYLMRHAKTVMNIEGRWQGINDSDIPEESLRHFEERIRFLAGKNIKAIYSSCLVRSIKSATVAASILGIDHIETVRGFNERDLGLMEGKTNDEIREKFGITDIYIASRAIESIPMVEPWPKFVGRVMATLQAFSGRDGSLVITHGGVMRAIYNTLTGSNERRVIFDNGYILKLEFSGSWRISEIIGQEGHHHHHH”, the “soluble on expression in E. coli” value was “soluble”. For “MNGESDCATCTISGAKLGNALGAIWTFVHTMEQGDVVLVRHGAWLSIGIIGPYRYVKHLDNDIYGFCHQRSVEWKIINENVRLYNEKVHETLRHPGVVTKSKYTVHELQLGIEW”, the “soluble on expression in E. coli” value was “not soluble”. For “GPGSMKLRCFLLRYYPPGITLEYETSAGQVGQKTIGLLSLTPTTPLEPLVDKIIAEEPLLNGKYHDQIVTYLQRLVEKLIAGNNPNQTFTLFKSLRAHMLPLTNCAFNKNGTKFVTGSYDRTCKVWETATGNELVSLEGHRNVVYCVGFNNPYGNRVATGSFDKTCKIWDGESGQCLHTLTGHVTEIVCMSFNPQSTLIGTGSMDNTAKVWDVETGQELHTLMDHTAEIVALNFNTYGDLIVTGSFDHTAKLWDVRTGTVVHTLREHRGEISSVQFNYASNLVVTGSIDRTCKLWDVASGRCVSTLRGHTDEVLDVAFSVSGNMVASASADTTARVYNTATCHCIASLNDHEGEISKLEFNPQGTKIITASGDKRCNLWSVETGQVLQSLVGHTDEIFSCSFNYEGDTILTGSKDNTCRIWKS”, the “soluble on expression in E. coli” value was “not soluble”. For “MGSDKIHHHHHHMSLLDKLRELGISENLIKEIEKFRSQYPVDKEYESRIPVPTQFYYGSDVWEQAITAVLCGENLLLVGEKATGKNLFAENLAGVFNRPRWDVSFHVNMDAASLIGTDTFSAGEVTFRPGPVYTAAKTGGFAVLDEINMAKSEAMAVLHATLDFRRTIDVPGYDRLSLHPATRFIATMNYGYAGTKELNEALVSRFAVIRMPMISKESLVKLIKEHYPTIREAGANELAEVFLELHTKCKNGEISSKALDLRGLIGSIGMMEKGLNIYAALDMGITNKSFDEYEQTLIRDTIRARISRKMSREQLFC”, the “soluble on expression in E. coli” value was “not soluble”. In the case of “MEEWIQYARDMAKAEKELEIELWVIISFYRTTEQGGKVLLFRYDLPRKVADKYDWVVRWRRARLTCQYPKGNVTHTYCLYDRHSGEDYSFGSCLSSLAAAKAQVTRMERRIREYTTWQKQNNLFFDEQTDEMLQKAVTKLKIKKENVQEAERRLQRKAEKHQREMRK”, the “soluble on expression in E. coli” value is reported as “not soluble”. With “SNAMKFLTVSDDMNFLRQVNTLVAGKGDMDSVIIGEGDAKGLGSKVLYRAKKGTPFDAVSEGILKIAGNYDYIAIGSTEVGREIAGYLSFKTGFYTATEIFSLEFNGQKAHTKRFFYGGKTVIEEESDARILTVAPGVIEAKDLGTTPEIRDLEIGQSRIKITKFV” the “soluble on expression in E. coli” value was “soluble”. In the case of “MSPRNDSTRKHRKSRSIKDDQHYPPVSFVGVESVGIIECPGSNHLSLASIPTTEFKIPDELALWVRGRIDNVAPKHPCDRRGQQPLAKKEISMNSSRSNSSFPARSPAIMTLMGGVPEAEKEYNVGKDGLLKVSKMMEGGKRYEVSANDRFTVFQQSAGQTCLFTFKA”, the “soluble on expression in E. coli” value is reported as “not soluble”. With “MKLFERIHQDTEIRQIYDAIGQMEDEEAGWAYHNWFHVTNVVAMTEMILKQLAVSEEYLEAAKIAALLHDVGALQGKAGHALRGKQFAEAYFRKQKICLPYQEEILSSIENHSNGFDSEELMTLALIISDKLDITTSRVAKAGYFVPGMRQFQFLKKIEIMLSEQEVCVSFTAEEELDLEELNAFYFMPKVFKAIAAFSGKIQRRPIVLLNNQEWPVPKQKNPSTVH” the “soluble on expression in E. coli” value was “not soluble”. For “MGSDKIHHHHHHMHKHADFFSYLSDHFQHTYWVPGNHEWYNSDMADRSGMLHEKIKDNVSLVNNAAVEQDGVQLIFSTLWSQISPAFAFQISQGMSDFHVIKYKGKPFSVEQFNRQHEESVSFIQKALQQKYAATTVVVSHHIPTFQHYPQQYKGSVLSEAFATELYDLIEAASPDYWIYGHHHSNVPDFTIGNTQLLTNQLGYVKCGEHAGFDRGKCLFRRGGH”, the “soluble on expression in E. coli” value was “not soluble”. In the case of “MPSSSPSMDESRRSAVPPKEPAGRICTVCSDRANGYNFGVLTCESCKAFFRRNASKHKEIKCPFSDSCQITSASRKFCQACRLNKCFAVGMNSEWLNDLKPKSSIVSGKFKRKKPDMKNNLKVEVDDTEEDLENDDEEQISVPKALLEKLINKANEKSKDRCTCKCQCGFYPITQRLTAYEPKDTTAVNSPQDISFSHHLHHSDSFYSSSTSTLSPMSVISCAPSSHDSSGYNTSQLVTQSPTNYTVSPASIPSSITELSPQMPSQYPPMLSPFQFGVMAQMAAPANFLNFPPMPERTWTPIQAVSTVPVTETLPPNLLEQIHSKIDKYIGVLNEDEITLLEELHVQNEPLNAPLIQWHNPKSIDGVFRIIEEALRRIVNMACQLSLFRELHVDDRKNLLKSGFGELLIVRGLMAYDKSDNSWNHSFGVRGKMEVKVEVLKNPKLEEHYKAHMNLLSTFGEDVRNNEHLMLIFNAAVIFHPHVSNLRDSKRVHSTQAKYFQMLLKLLTFEYGKSRADIAYSNLLNQVVELHRVNRTLLRVFYGLDIAQLDPLIRELCSFE”, the “soluble on expression in E. coli” value is reported as “not soluble”. For “GPGSMPSSSLSQSSAPRQPPLGDSGECRCSTLPPKPPLAGVEEPQPSDAEDPIPFLATMSMNQVGFLHARKCTRRDLLGTSLGNCPASENVLANGASHGIEATPLPGSRSATSTSFTSPTSAPLAPMAESECDVSYLEQMLMQIMDAAKAFANTSQAPSCDTAPQSADTLPACEYLLRKCFHFDTGAFKPRQQEVCLSVLAGVNTLAVCPTGWGKSLCFQFPMLVHRLLFQCRYTRWCRQAATAPAAAQQSSETAVKEGQTGASRFAGALPSAGLPAHLFSRFCVVVSPLLALMEDQAEKINAVDHLSAFVLSAKVGADREARVLAQLESPVCPLDILFVSPEN”, the “soluble on expression in E. coli” value was “not soluble”. For “MGHHHHHHSHMNGEAICSALPTIPYHKLADLRYLSRGASGTVSSARHADWRVQVAVKHLHIHTPLLDSERKDVLREAEILHKARFSYILPILGICNEPEFLGIVTEYMPNGSLNELLHRKTEYPDVAWPLRFRILHEIALGVNYLHNMTPPLLHHDLKTQNILLDNEFHVKIADFGLSKWRMMSLSQS”, the “soluble on expression in E. coli” value was “not soluble”. For “MGSDKIHHHHHHMIIRKICTTLPVILPEPETIMTVTRPRAERGAFPPGTEHYGRSLLGAPLIWFPAPAASRESGLILAGTHGDENSSVVTLSCALRTLTPSLRRHHVVLCVNPDGCQLGLRANANGVDLNRNFPAANWKEGETVYRWNSAAEERDVVLLTGDKPGSEPETQALCQLIHRIQPAWVVSFHDPLACIEDPRHSELGEWLAQAFELPLVTSVGYETPGSFGSWCADLNLHCITAEFPPISSDEASEKYLFAMANLLRWHPKDAIRPS”, the “soluble on expression in E. coli” value was “not soluble”. With GCPRILIRCKQDSDCLAGCVCGPNGFCGSPA the “soluble on expression in E. coli” value was “soluble”. In the case of “MSYLSAIENQENMVVKQEIKIEEEDDDYPLSTIDMAVQALIRNPHHNVDYICGVMIFGGSKNQFNELLNPVVVAQMSKQRKQKKVPVKNPAGEAKRGRGRPRKQSSEEKVQIPKVVVKFEPKKRGRPAGAAKWSQEVAVVLQKQPQRKRGRPLKIAKKIEPVFHQKKESKQNSEEKALIQQEAVKGEPKNRGRPCGAAERSREVVKKLQKQPPRKRGRPLKIAKNMEPEINQKKDTKQVHVCPICTLASKNGTCLCTKCQKWVHLKCTGIRSKQWNSQFQCKNCTC”, the “soluble on expression in E. coli” value is reported as “not soluble”. With “QLAAIDAFDRLTALMTSHFDIDVAFVGLMDEHEERFVACEGANWRTLAREDTICTHTILSDETMVVEDTHEDPRFAEVDALKRLNIRSYAGGRITDREGNAIGAVCCTDGEPRRYTQTERDDLQRFADEVEEQLLLRRRLQGDR” the “soluble on expression in E. coli” value was “not soluble”. For “MLYKIYSYLGWRIDMKTENLPQAGQEAQIDKKIHFIWVGHIMPQKNIQVVSEWAEKNPGYETIIWVDKKIAPAKELDLFILDMKSKGITVKDINEEGVCRDSIRHELDQESPNYGMVSDMLRLNILAAEGGIYLDSDILCSAPFPDEIYAPFGFLLSPWSQGANNTLCNDIILCSKGNQIIQQLADAIEQSYIARDSFEFTHEYASMKETKGERIAKTLGVTGPGFLFHQLKKMGILNDKSEMEAIHWELQDQRYLIDGSVKEPDYFYVPQNNTNDASWVPSIKRPGIENMSFQERLENAVQLIAFDIQKTGLFNLDHYANELKVKQNSWCIAAETSPELKPDSYLLIRPRDKTGEWTLYYVDEDKKLNPVTLPVIKGAIKLSEVSDPLRKFHTLLSQVSDPVNPTAHELKQIGRALIELKPRQDEWHCKNKWSGAEEIAQELWQRITSNETLRAQIKQCFTQFESLKPRVAELGLTRASGAGTEVEAHESTVKEQEIISQNTVGEEGTKEKNSVQLASENSSDEKIKTAHDLIDEIIQDVIQLDGKLGLLGGNTRQLEDGRVINIPNGAAMIFDDYKKYKQGELTAESALESMIKIAKLSNQLNRHTFFNQRQPETGQFYKKVAAIDLQTTIAAEYDNNHGLRILEHHHHHH”, the “soluble on expression in E. coli” value was “not soluble”. For “MKGRRPPASPTAAASAQLELPLLAPPAAPDAAPPSADPAQPDPAAPLGPDQRRLALGERTLVYHLKRSSRRTIGFVVDDRGLSITAPRWVTLAEIEHAIAEKQKWIFAKLAEWHTSAARRVLPPMRWEDGATLPFLGKPVMLKLESPIGALVFDADMRTLHLGLPPTATGQQIKDRVQGWLQTQARRLFGERLDVYAERLGVRHSAYALSSAATRWGSCTADGKIRLNWRLVHFPLSLIDYVVAHELAHLKEMNHSPRFWDTVESIFPEFREAREQLRSHPPEYLPVFLEHHHHHH”, the “soluble on expression in E. coli” value was “not soluble”. In the case of “GPGSMQTSQSLHTAPAEKEVEAPPQLPLTDGRCYACRRCRRILSEVQWYATGCVECSATMGVPDRDSLLDFATPHFHNFIGLIAPGQSWVARLIMKSREPTNGIFAETLSDDEPEDEENEIEPYVGDADEEEGPALLDGEDGAAEPVHELAAEAPE”, the “soluble on expression in E. coli” value is reported as “soluble”. With “MAHHHHHHMSAHEEEIDMILSMFSDECERYEGTSDSIIVHLPFHFELQVTLPPHGYPDASYPKLYLLSSPNAQLASAFSQAVYRRMRDEISLGIPMLALLIPLAQSVAEELKDLKERAEKARQDEAVERMSELQRKEEHRRETGIAIWSGQAIVDRRSRFVAHMARVHSMDEVREVVGHLRSVKSIACAAHPTIYAYRFTDANGVLQKDSDDDGESGASIKMMFLLDHLQIDGYVVVVTRWWGGILLGPDRFKHIMEVTKNLLLTIPEREKEMAASAKRKSLR” the “soluble on expression in E. coli” value was “soluble”.
